{
  "source": "patent US20240092835A1",
  "about": "“NOVEL PEPTIDES CAPABLE OF ALTERING NK CELL ACTIVITY” (Massachusetts Institute of Technology, priority 2022, published 2024)",
  "key": {"[1]": {"biological_target": "CD94/NKG2A (UniProt Q13241)", "assay": "SPR steady state, Biacore T200, pMHC single chain trimer immobilized, CD94/NKG2A analyte"}, "[2]": {"biological_target": "CD94/NKG2C (UniProt Q13241)", "assay": "SPR steady state, Biacore T200, pMHC single chain trimer immobilized, CD94/NKG2C analyte"}},
  "data": [
    {"substance": "AKAP6388-396 peptide-HLA-E complex (single chain trimer) (from UniProt P61769 21-119; P13747 22-297) (peptide-MHC)", "values": [
      {"measurement": "Kd", "setting": "[1]", "result": 4.1, "unit": "µM"},
      {"measurement": "Kd", "setting": "[2]", "result": 15.6, "unit": "µM"}
    ]},
    {"substance": "BFAR263-271 peptide-HLA-E complex (single chain trimer) (from UniProt P61769 21-119; P13747 22-297) (peptide-MHC)", "values": [
      {"measurement": "Kd", "setting": "[1]", "result": 0.8, "unit": "µM"},
      {"measurement": "Kd", "setting": "[2]", "result": 1.8, "unit": "µM"}
    ]},
    {"substance": "CREB3L1419-427 peptide-HLA-E complex (single chain trimer) (from UniProt P61769 21-119; P13747 22-297) (peptide-MHC)", "values": [
      {"measurement": "Kd", "setting": "[1]", "result": 3.3, "unit": "µM"},
      {"measurement": "Kd", "setting": "[2]", "result": 9.8, "unit": "µM"}
    ]},
    {"substance": "GTF3C5293-301 peptide-HLA-E complex (single chain trimer) (from UniProt P61769 21-119; P13747 22-297) (peptide-MHC)", "values": [
      {"measurement": "Kd", "setting": "[1]", "result": 28.1, "unit": "µM"},
      {"measurement": "Kd", "setting": "[2]", "result": 92.4, "unit": "µM"}
    ]},
    {"substance": "PISD55-63 peptide-HLA-E complex (single chain trimer) (from UniProt P61769 21-119; P13747 22-297) (peptide-MHC)", "values": [
      {"measurement": "Kd", "setting": "[1]", "result": 12.1, "unit": "µM"},
      {"measurement": "Kd", "setting": "[2]", "result": 16, "unit": "µM"}
    ]}
  ]
}
